Experimental data published in article PMC10208891.

Experiments:
[1] = anti-Flag immunofluorescence with DAPI; settings: glycan lost; control: SFB-YTHDF1-WT, untreated
[2] = nuclear and cytoplasmic fractionation, immunoblot; settings: glycan lost; control: SFB-YTHDF1-WT

B1: YTH domain family 1 (YTHDF1): AFA (protein)
parent chain: MSATSVDTQRTKGQDNKVQNGSLHQKDTVHDNDFEPYLTGQSNQSNSYPSMSDPYLSSYYPPSIGFPYSLNEAPWSTAGDPPIPYLTTYGQLSNGDHHFMHDAVFGQPGGLGNNIYQHRFNFFPENPAFSAWGTSGSQGQQTQSSAYGSSYTYPPSSLGGTVVDGQPGFHSDTLSKAPGMNSLEQGMVGLKIGDVSSSAVKTVGSVVSSVALTGVLSGNGGTNVNMPVSKPTSWAAIASKPAKPQPKMKTKSGPVMGGGLPPPPIKHNMDIGTWDNKGPVPKAPVPQQAPSPQAAPQPQQVAQPLPAQPPALAQPQYQSPQQPPQTRWVAPRNRNAAFGQSGGAGSDSNSPGNVQPNSAPSVESHPVLEKLKAAHSYNPKEFEWNLKSGRVFIIKSYSEDDIHRSIKYSIWCSTEHGNKRLDSAFRCMSSKGPVYLLFSVNGSGHFCGVAEMKSPVDYGTSAGVWSQDKWKGKFDVQWIFVKDVPNNQLRHIRLENNDNKPVTNSRDTQEVPLEKAKQVLKIISSYKHTTSIFDDFAHYEKRQEEEEVVRKERQSRNKQ
In the case of B1, the localisation_or_trafficking [1] is reported as “changes” and the localisation_or_trafficking [2] is reported as “changes”.
